Common to all, as to experiment: FRET or BRET; 25 nM donor (AF555)-labelled octamers titrated with acceptor (AF647)-labelled octamers, serial dilutions from 100 nM; 45 mM KCl, 50 mM Tris-HCl pH 8.0; room temperature, 1 h equilibration; triplicate; PCA and curve fit; apparent Kd of end-to-end association of rods
Assay [1] deals with Shs1(E344C)-capped, otherwise Cys-less septin hetero-octamer (Shs1-Cdc12-Cdc3-Cdc10-Cdc10-Cdc3-Cdc12-Shs1) (S. cerevisiae) (UniProt Q07657).
For assay [2], the target named is Cdc11(E294C)-capped, otherwise Cys-less septin hetero-octamer (Cdc11-Cdc12-Cdc3-Cdc10-Cdc10-Cdc3-Cdc12-Cdc11) (S. cerevisiae) (UniProt P32458).
Cdc11(E294C)-capped, otherwise Cys-less septin hetero-octamer (Cdc11-Cdc12-Cdc3-Cdc10-Cdc10-Cdc3-Cdc12-Cdc11) (S. cerevisiae), sequence (P32458 whole entry C43F/C137A/C138A/E294C, chain 1 of 4): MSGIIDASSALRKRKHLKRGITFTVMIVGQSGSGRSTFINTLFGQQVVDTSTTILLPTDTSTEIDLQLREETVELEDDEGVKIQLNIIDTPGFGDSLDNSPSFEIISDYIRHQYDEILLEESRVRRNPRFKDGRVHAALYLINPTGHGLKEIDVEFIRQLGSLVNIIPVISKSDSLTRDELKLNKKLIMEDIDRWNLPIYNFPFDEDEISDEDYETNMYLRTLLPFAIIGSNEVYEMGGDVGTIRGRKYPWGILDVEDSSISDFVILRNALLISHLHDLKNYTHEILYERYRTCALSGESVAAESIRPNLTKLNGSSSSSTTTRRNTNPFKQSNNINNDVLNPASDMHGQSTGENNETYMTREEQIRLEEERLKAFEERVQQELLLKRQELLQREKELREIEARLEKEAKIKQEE
Cdc11(E294C)-capped, otherwise Cys-less septin hetero-octamer (Cdc11-Cdc12-Cdc3-Cdc10-Cdc10-Cdc3-Cdc12-Cdc11) (S. cerevisiae), sequence (P32468 whole entry C40A/C278S, chain 2 of 4, further chain): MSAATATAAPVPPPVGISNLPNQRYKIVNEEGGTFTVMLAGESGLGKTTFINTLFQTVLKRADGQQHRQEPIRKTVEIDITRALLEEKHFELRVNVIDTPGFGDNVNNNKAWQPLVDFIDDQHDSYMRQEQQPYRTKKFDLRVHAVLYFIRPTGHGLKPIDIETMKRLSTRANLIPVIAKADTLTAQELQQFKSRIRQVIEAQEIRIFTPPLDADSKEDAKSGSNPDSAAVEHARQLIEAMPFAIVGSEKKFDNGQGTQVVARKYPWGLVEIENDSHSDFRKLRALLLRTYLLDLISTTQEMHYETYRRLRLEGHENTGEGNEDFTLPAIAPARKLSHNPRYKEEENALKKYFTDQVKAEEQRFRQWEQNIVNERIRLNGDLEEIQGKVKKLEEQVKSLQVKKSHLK
Cdc11(E294C)-capped, otherwise Cys-less septin hetero-octamer (Cdc11-Cdc12-Cdc3-Cdc10-Cdc10-Cdc3-Cdc12-Cdc11) (S. cerevisiae), sequence (P32457 other isoform, or with tags, fused parts or gaps E294C, chain 3 of 4, further chain): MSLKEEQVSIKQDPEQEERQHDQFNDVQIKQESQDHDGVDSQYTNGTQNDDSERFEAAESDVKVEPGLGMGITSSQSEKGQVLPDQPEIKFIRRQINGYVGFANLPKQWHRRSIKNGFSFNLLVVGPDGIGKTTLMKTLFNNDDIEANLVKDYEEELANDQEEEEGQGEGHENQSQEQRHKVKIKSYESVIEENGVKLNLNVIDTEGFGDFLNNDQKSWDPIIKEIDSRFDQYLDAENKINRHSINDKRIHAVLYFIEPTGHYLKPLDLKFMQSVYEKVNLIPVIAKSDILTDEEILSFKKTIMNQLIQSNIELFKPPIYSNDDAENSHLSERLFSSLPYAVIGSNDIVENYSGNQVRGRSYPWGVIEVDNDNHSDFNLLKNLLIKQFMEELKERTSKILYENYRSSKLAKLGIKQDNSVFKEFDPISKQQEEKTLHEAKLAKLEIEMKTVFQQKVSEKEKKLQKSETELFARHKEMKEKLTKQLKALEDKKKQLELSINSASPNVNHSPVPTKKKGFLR
Cdc11(E294C)-capped, otherwise Cys-less septin hetero-octamer (Cdc11-Cdc12-Cdc3-Cdc10-Cdc10-Cdc3-Cdc12-Cdc11) (S. cerevisiae), sequence (P25342 whole entry C266S, chain 4 of 4, further chain): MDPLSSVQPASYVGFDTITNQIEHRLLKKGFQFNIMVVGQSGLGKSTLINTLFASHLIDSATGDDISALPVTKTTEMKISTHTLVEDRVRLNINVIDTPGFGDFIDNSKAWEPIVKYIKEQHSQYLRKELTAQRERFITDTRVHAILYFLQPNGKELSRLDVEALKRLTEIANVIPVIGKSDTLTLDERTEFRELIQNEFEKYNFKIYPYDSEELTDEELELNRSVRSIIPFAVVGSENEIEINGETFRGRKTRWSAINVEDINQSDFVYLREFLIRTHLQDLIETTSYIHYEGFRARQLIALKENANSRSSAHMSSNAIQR
Assay [3] concerns the target Shs1(E344C ΔCTE)-capped, otherwise Cys-less septin hetero-octamer (S. cerevisiae) (UniProt Q07657).
The target in assay [4] is Cdc11(E294C ΔCTE)-capped, otherwise Cys-less septin hetero-octamer (S. cerevisiae) (UniProt P32458).

Shs1(E344C)-capped, otherwise Cys-less septin hetero-octamer (Shs1-Cdc12-Cdc3-Cdc10-Cdc10-Cdc3-Cdc12-Shs1) (S. cerevisiae), sequence (Q07657 whole entry C29V/C148S/E344C, chain 1 of 4): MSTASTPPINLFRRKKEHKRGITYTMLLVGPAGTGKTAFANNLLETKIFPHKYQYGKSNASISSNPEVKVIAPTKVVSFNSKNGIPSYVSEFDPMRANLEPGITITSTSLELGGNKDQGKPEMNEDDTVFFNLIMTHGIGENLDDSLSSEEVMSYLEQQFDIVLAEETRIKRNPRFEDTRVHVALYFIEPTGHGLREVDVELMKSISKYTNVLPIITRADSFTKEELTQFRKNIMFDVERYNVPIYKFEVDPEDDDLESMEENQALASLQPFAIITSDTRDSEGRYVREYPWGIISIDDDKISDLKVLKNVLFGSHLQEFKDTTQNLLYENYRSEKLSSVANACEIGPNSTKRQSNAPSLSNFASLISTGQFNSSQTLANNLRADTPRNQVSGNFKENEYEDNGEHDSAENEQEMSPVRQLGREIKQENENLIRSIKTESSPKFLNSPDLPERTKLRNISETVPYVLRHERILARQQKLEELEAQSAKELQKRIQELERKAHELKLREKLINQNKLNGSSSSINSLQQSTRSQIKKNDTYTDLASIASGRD
Shs1(E344C)-capped, otherwise Cys-less septin hetero-octamer (Shs1-Cdc12-Cdc3-Cdc10-Cdc10-Cdc3-Cdc12-Shs1) (S. cerevisiae), sequence (P32468 whole entry C40A/C278S, chain 2 of 4, further chain): as the sequence (P32468 whole entry C40A/C278S, chain 2 of 4, further chain) above
Shs1(E344C)-capped, otherwise Cys-less septin hetero-octamer (Shs1-Cdc12-Cdc3-Cdc10-Cdc10-Cdc3-Cdc12-Shs1) (S. cerevisiae), sequence (P32457 other isoform, or with tags, fused parts or gaps E344C, chain 3 of 4, further chain): as the sequence (P32457 other isoform, or with tags, fused parts or gaps E294C, chain 3 of 4, further chain) above
Shs1(E344C)-capped, otherwise Cys-less septin hetero-octamer (Shs1-Cdc12-Cdc3-Cdc10-Cdc10-Cdc3-Cdc12-Shs1) (S. cerevisiae), sequence (P25342 whole entry C266S, chain 4 of 4, further chain): as the sequence (P25342 whole entry C266S, chain 4 of 4, further chain) above
Shs1(E344C ΔCTE)-capped, otherwise Cys-less septin hetero-octamer (S. cerevisiae), sequence (Q07657 1-348 C29V/C148S/E344C, chain 1 of 4): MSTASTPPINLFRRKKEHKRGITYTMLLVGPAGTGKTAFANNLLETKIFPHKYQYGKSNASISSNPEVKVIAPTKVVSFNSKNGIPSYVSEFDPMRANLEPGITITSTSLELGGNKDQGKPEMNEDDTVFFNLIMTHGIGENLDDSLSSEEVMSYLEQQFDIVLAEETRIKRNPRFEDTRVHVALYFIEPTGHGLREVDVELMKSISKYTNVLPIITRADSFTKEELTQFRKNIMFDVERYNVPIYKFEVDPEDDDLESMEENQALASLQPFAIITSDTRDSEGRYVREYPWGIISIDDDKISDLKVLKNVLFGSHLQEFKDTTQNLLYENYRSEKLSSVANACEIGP
Shs1(E344C ΔCTE)-capped, otherwise Cys-less septin hetero-octamer (S. cerevisiae), sequence (P32468 whole entry C40A/C278S, chain 2 of 4, further chain): as the sequence (P32468 whole entry C40A/C278S, chain 2 of 4, further chain) above
Shs1(E344C ΔCTE)-capped, otherwise Cys-less septin hetero-octamer (S. cerevisiae), sequence (P32457 other isoform, or with tags, fused parts or gaps E344C, chain 3 of 4, further chain): as the sequence (P32457 other isoform, or with tags, fused parts or gaps E294C, chain 3 of 4, further chain) above
Shs1(E344C ΔCTE)-capped, otherwise Cys-less septin hetero-octamer (S. cerevisiae), sequence (P25342 whole entry C266S, chain 4 of 4, further chain): as the sequence (P25342 whole entry C266S, chain 4 of 4, further chain) above

Consider “Cdc11(E294C ΔCTE)-capped, otherwise Cys-less septin hetero-octamer (from UniProt P32458 1-305; P32468 1-407; P32457 1-520; P25342 1-322) (complex)”, for which the Kd came out at 22.2 nM in assay [1], 24.1 nM in assay [2], 22.8 nM in assay [3] and 17.7 nM in assay [4].
